# Test results as given in patent US20250353912A1 (published 2025).
# Where no end group is shown, it is not given here. [ ]: non-standard residue; d: D form.
# T1: KRAS(G12C) residues 4-18 peptide conjugated to AMG-510
# T1 peptide: YKLVVVGAC(AMG‑510)GVGKSA[dPEG4]K(long chain biotin)-NH2
# What was measured:
# [1] = biological target: T1, KRAS(G12C) residues 4-18 peptide …; test: bead binding assay; apparent KD
# [2] = biological target: HLA-A*01:01 in complex with the BTK peptide … conjugated with Ibrutinib (human;, ibrutinib covalently bound to Cys); test: multiplex bead-binding assay
# RAS-AMG510 = test: cell binding, flow cytometry (peptide-pulsed Raji cells); apparent KD
# CD3 on Jurkat cells = CD3 on Jurkat cells (UniProt P07766 23-207); test: cell binding, flow cytometry
Binder,Kd [2] [nM],other results
"P2AMR-1 in the human IgG1 format (antibody, V domains shown) VH: QVQLVQSEPEVKKPGSSVKLSCKASGGTFSTDAITWVRQAPGQGLEYMGGIIPLLDSVDYAQRFQGRVTVSADKSTGTAYMEVRSLGSEDTAKYYCAKWSSVDTGLDYWGQGTLVTVSS VL: QSVLIQPRSVSGSPGQSVTISCTGTSSDVGGYNYVSWYQQHPGKAPKLMIYDVSKRPSGVPDRFSGSKSGNTASLTVSGLQAEDEADYYCGSYADTDTIVFGTGTKLTVL",–,Kd [1]: 0.2 nM
"IBA1-7 (antibody, V domains shown) VH: EVQLVESGGGLVQPGGSLRLSCAASGFTLSSSSIHWVRQAPGKGLEWVASISSYYGSTSYADSVKGRFTISADTSKNTAYLQMNSLRAEDTAVYYCARMHYSWQEYYSYDWGMDYWGQGTLVTVSS VL: DIQMTQSPSSLSASVGDRVTITCRASQSVSSAVAWYQQKPGKAPKLLIYSASSLYSGVPSRFSGSRSGTDFTLTISSLQPEDFATYYCQQSYWWKSLVTFGQGTKVEIKR",170,–
"AMRA311-18 hIgG1 (antibody, V domains shown) VH: EVQLVESGGGLVQPGGSLRLSCAASGFTISSSSIHWVRQAPGKGLEWVASIYSSSGSTSYADSVKGRFTISADTSKNTAYLQMNSLRAEDTAVYYCARVYSSRYWGWGVAFDYWGQGTLVTVSS VL: DIQMTQSPSSLSASVGDRVTITCRASQSVSSAVAWYQQKPGKAPKLLIYSASSLYSGVPSRFSGSRSGTDFTLTISSLQPEDFATYYCQQWNWADYLVTFGQGTKVEIKR",–,Kd (RAS-AMG510): 52 nM
"IBA1-4 (antibody, V domains shown) VH: EVQLVESGGGLVQPGGSLRLSCAASGFTVSSSSIHWVRQAPGKGLEWVASIYSYSGSTYYADSVKGRFTISADTSKNTAYLQMNSLRAEDTAVYYCARQYSSSYYVWPGMDYWGQGTLVTVSS VL: DIQMTQSPSSLSASVGDRVTITCRASQSVSSAVAWYQQKPGKAPKLLIYSASSLYSGVPSRFSGSRSGTDFTLTISSLQPEDFATYYCQQYHYWASLITFGQGTKVEIKR",0.65,–
AMRA3-7D_CrossMab (bispecific antibody) EVQLLESGGGLVQPGGSLRLSCAASGFTFSTYAMNWVRQAPGKGLEWVSRIRSKYNNYATYYADSVKGRFTISRDDSKNTLYLQMNSLRAEDTAVYYCVRHGNFGNSYVSWFAYWGQGTLVTVSSASVAAPSVFIFPPSDEQLKSGTASVVCLLNNFYPREAKVQWKVDNALQSGNSQESVTEQDSKDSTYSLSSTLTLSKADYEKHKVYACEVTHQGLSSPVTKSFNRGEC heavy 1: not shown heavy 2: EVQLVESGGGLVQPGGSLRLSCAASGFTFSDYSIHWVRQAPGKGLEWVASISSSSGSTSYADSVKGRFTISADTSKNTAYLQMNSLRAEDTAVYYCARGGWYPAMDYWGQGTLVTVSSASTKGPSVFPLAPSSKSTSGGTAALGCLVEDYFPEPVTVSWNSGALTSGVHTFPAVLQSSGLYSLSSVVTVPSSSLGTQTYICNVNHKPSNTKVDEKVEPKSCDKTHTCPPCPAPEAAGGPSVFLFPPKPKDTLMISRTPEVTCVVVDVSHEDPEVKFNWYVDGVEVHNAKTKPREEQYNSTYRVVSVLTVLHQDWLNGKEYKCKVSNKALGAPIEKTISKAKGQPREPQVCTLPPSRDELTKNQVSLSCAVKGFYPSDIAVEWESNGQPENNYKTTPPVLDSDGSFFLVSKLTVDKSRWQQGNVFSCSVMHEALHNHYTQKSLSLSP light: DIQMTQSPSSLSASVGDRVTITCRASQSVSSAVAWYQQKPGKAPKLLIYSASSLYSGVPSRFSGSRSGTDFTLTISSLQPEDFATYYCQQISYVKKLITFGQGTKVEIKRTVAAPSVFIFPPSDRKLKSGTASVVCLLNNFYPREAKVQWKVDNALQSGNSQESVTEQDSKDSTYSLSSTLTLSKADYEKHKVYACEVTHQGLSSPVTKSFNRGEC,–,Kd (CD3 on Jurkat cells): 200 nM
"IBA1-8 (antibody, V domains shown) VH: EVQLVESGGGLVQPGGSLRLSCAASGFTISYSSIHWVRQAPGKGLEWVASIYPSYGSTSYADSVKGRFTISADTSKNTAYLQMNSLRAEDTAVYYCARWQGYYQPALDYWGQGTLVTVSS VL: DIQMTQSPSSLSASVGDRVTITCRASQSVSSAVAWYQQKPGKAPKLLIYSASSLYSGVPSRFSGSRSGTDFTLTISSLQPEDFATYYCQQPYYPLITFGQGTKVEIKR",62,–
"AMRA311-17 hIgG1 (antibody, V domains shown) VH: EVQLVESGGGLVQPGGSLRLSCAASGFTISSSSIHWVRQAPGKGLEWVASISSYSGSTYYADSVKGRFTISADTSKNTAYLQMNSLRAEDTAVYYCARYPYGSHVYTGLDYWGQGTLVTVSS VL: DIQMTQSPSSLSASVGDRVTITCRASQSVSSAVAWYQQKPGKAPKLLIYSASSLYSGVPSRFSGSRSGTDFTLTISSLQPEDFATYYCQQSSSSLITFGQGTKVEIKR",–,Kd (RAS-AMG510): 180 nM
"AMRA311-16 hIgG1 (antibody, V domains shown) VH: EVQLVESGGGLVQPGGSLRLSCAASGFTISSSSIHWVRQAPGKGLEWVAYISSYSGYTYYADSVKGRFTISADTSKNTAYLQMNSLRAEDTAVYYCARYWYGHYHSYFGLDYWGQGTLVTVSS VL: DIQMTQSPSSLSASVGDRVTITCRASQSVSSAVAWYQQKPGKAPKLLIYSASSLYSGVPSRFSGSRSGTDFTLTISSLQPEDFATYYCQQSSSSLITFGQGTKVEIKR",–,Kd (RAS-AMG510): 71 nM

# Continued, in another order:
Kd [2] [nM],Binder,other results
0.137,"IBA1-13 (antibody, V domains shown) VH: EVQLVESGGGLVQPGGSLRLSCAASGFTLSSSSIHWVRQAPGKGLEWVASIYSSYGYTYYADSVKGRFTISADTSKNTAYLQMNSLRAEDTAVYYCARYYYYWYGGMDYWGQGTLVTVSS VL: DIQMTQSPSSLSASVGDRVTITCRASQSVSSAVAWYQQKPGKAPKLLIYSASSLYSGVPSRFSGSRSGTDFTLTISSLQPEDFATYYCQQGHDMNPVTFGQGTKVEIKR",–
0.04,"IBA1-21 (antibody, V domains shown) VH: EVQLVESGGGLVQPGGSLRLSCAASGFTISSSSIHWVRQAPGKGLEWVASISSYYGYTSYADSVKGRFTISADTSKNTAYLQMNSLRAEDTAVYYCARYYSYSSGYGYYDYFDWGAMDYWGQGTLVTVSS VL: DIQMTQSPSSLSASVGDRVTITCRASQSVSSAVAWYQQKPGKAPKLLIYSASSLYSGVPSRFSGSRSGTDFTLTISSLQPEDFATYYCQQMQYSGWLITFGQGTKVEIKR",–
0.52,"IBA1-19 (antibody, V domains shown) VH: EVQLVESGGGLVQPGGSLRLSCAASGFTFSYSSIHWVRQAPGKGLEWVASIYPSSGYTSYADSVKGRFTISADTSKNTAYLQMNSLRAEDTAVYYCARGWWYWMAWDYAMDYWGQGTLVTVSS VL: DIQMTQSPSSLSASVGDRVTITCRASQSVSSAVAWYQQKPGKAPKLLIYSASSLYSGVPSRFSGSRSGTDFTLTISSLQPEDFATYYCQQSWMSDSLITFGQGTKVEIKR",–
